B1: LOXL2 (parent)
chain: HISSCKLGPQVSLDPMKNVTCENG

Variants of: B1
Experiment: protein stability index of a GFP-peptide fusion (GPS, HEK-293T) (PSI 1-6); higher = more stable
Details: c terminus: a fixed tail appended
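Note: lentivirally expressed fusions sorted by FACS into six bins by GFP to DsRed ratio, PSI derived from sequencing read proportions per bin multiplied by bin number.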

Row | Variant | protein stability index
1 | HISSCKLGKQVSLDPMKNVTCENG | 4.25
2 | HISSCKLGTQVSLDPMKNVTCENG | 3.95
3 | HISSCKLGHQVSLDPMKNVTCENG | 3.73
4 | HISSCKLGFQVSLDPMKNVTCENG | 2.65
5 | HISSCKLGGQVSLDPMKNVTCENG | 3.51
6 | HISSCKLGYQVSLDPMKNVTCENG | 2.83
7 | HISSCKLGEQVSLDPMKNVTCENG | 4.36
8 | HISSCKLGQQVSLDPMKNVTCENG | 3.87
9 | HISSCKLGDQVSLDPMKNVTCENG | 4.05
10 | HISSCKLGSQVSLDPMKNVTCENG | 3.05
11 | HISSCKLGNQVSLDPMKNVTCENG | 3.71
12 | HISSCKLGLQVSLDPMKNVTCENG | 2.84
13 | HISSCKLGVQVSLDPMKNVTCENG | 3.23
14 | HISSCKLGAQVSLDPMKNVTCENG | 3.85
15 | HISSCKLGIQVSLDPMKNVTCENG | 2.63
16 | HISSCKLGWQVSLDPMKNVTCENG | 2.2
17 | HISSCKLGMQVSLDPMKNVTCENG | 2.69
18 | HISSCKLGCQVSLDPMKNVTCENG | 3.23
19 | HISSCKLGRQVSLDPMKNVTCENG | 3.76
20 | HISSCKLGPEVSLDPMKNVTCENG | 4.42
21 | HISSCKLGPRVSLDPMKNVTCENG | 3.85
22 | HISSCKLGPNVSLDPMKNVTCENG | 3.92
23 | HISSCKLGPAVSLDPMKNVTCENG | 4.29
24 | HISSCKLGPHVSLDPMKNVTCENG | 3.52

Row | Variant | protein stability index
25 | HISSCKLGPMVSLDPMKNVTCENG | 3.37
26 | HISSCKLGPSVSLDPMKNVTCENG | 4.33
27 | HISSCKLGPKVSLDPMKNVTCENG | 3.77
28 | HISSCKLGPFVSLDPMKNVTCENG | 3.07
29 | HISSCKLGPYVSLDPMKNVTCENG | 3.07
30 | HISSCKLGPTVSLDPMKNVTCENG | 3.36
31 | HISSCKLGPVVSLDPMKNVTCENG | 3.56
32 | HISSCKLGPWVSLDPMKNVTCENG | 2.08
33 | HISSCKLGPLVSLDPMKNVTCENG | 3.32
34 | HISSCKLGPCVSLDPMKNVTCENG | 3.19
35 | HISSCKLGPDVSLDPMKNVTCENG | 4.58
36 | HISSCKLGPPVSLDPMKNVTCENG | 3.68
37 | HISSCKLGPGVSLDPMKNVTCENG | 4.53
38 | HISSCKLGPIVSLDPMKNVTCENG | 3.54
39 | HISSCTLGPQVSLDPMKNVTCENG | 4.36
40 | HISSCSLGPQVSLDPMKNVTCENG | 4.34
41 | HISSCPLGPQVSLDPMKNVTCENG | 4.48
42 | HISSCQLGPQVSLDPMKNVTCENG | 4.04
43 | HISSCVLGPQVSLDPMKNVTCENG | 3.95
44 | HISSCWLGPQVSLDPMKNVTCENG | 2.64
45 | HISSCYLGPQVSLDPMKNVTCENG | 3.44
46 | HISSCRLGPQVSLDPMKNVTCENG | 3.94
47 | HISSCKLGPQVSLDSMKNVTCENG | 3.94
48 | HISSCKLGPQVSLDVMKNVTCENG | 3.88

Row | Variant | protein stability index
49 | HISSCKLGPQVSLDIMKNVTCENG | 3.41
50 | HISSCKLGPQVSLDGMKNVTCENG | 3.93
51 | HISSCKLGPQVSLDFMKNVTCENG | 3.04
52 | HISSCKLGPQVSLDDMKNVTCENG | 4.19
53 | HISSCKLGPQVSLDHMKNVTCENG | 4.02
54 | HISSCKLGPQVSLDTMKNVTCENG | 4.14
55 | HISSCKLGPQVSLDYMKNVTCENG | 2.84
56 | HISSCKLGPQVSLDAMKNVTCENG | 3.86
57 | HISSCKLGPQVSLDLMKNVTCENG | 3.62
58 | HISSCKLGPQVSLDMMKNVTCENG | 3.74
59 | HISSCKLGPQVSLDKMKNVTCENG | 3.93
60 | HISSCKLGPQVSLDNMKNVTCENG | 4.11
61 | HISSCKLGPQVSLDQMKNVTCENG | 4.03
62 | HISSCKLGPQVSLDRMKNVTCENG | 3.82
63 | HISSCKLGPQVSLDEMKNVTCENG | 4.64
64 | HISSCKLGPQVSLDWMKNVTCENG | 3.08
65 | HISSCKLGPQVSLDCMKNVTCENG | 3.43
66 | HISSCKLGPQVSFDPMKNVTCENG | 3.52
67 | HISSCKLGPQVSYDPMKNVTCENG | 3.5
68 | HISSCKLGPQVSVDPMKNVTCENG | 4.06
69 | HISSCKLGPQVSTDPMKNVTCENG | 4.61
70 | HISSCKLGPQVSPDPMKNVTCENG | 4.22
71 | HISSCKLGPQVSDDPMKNVTCENG | 4.34
72 | HISSCKLGPQVSIDPMKNVTCENG | 4.1

Row | Variant | protein stability index
73 | HISSCKLGPQVSMDPMKNVTCENG | 4.24
74 | HISSCKLGPQVSKDPMKNVTCENG | 4.15
75 | HISSCKLGPQVSEDPMKNVTCENG | 4.58
76 | HISSCKLGPQVSWDPMKNVTCENG | 3.58
77 | HISSCKLGPQVSSDPMKNVTCENG | 4.45
78 | HISSCKLGPQVSHDPMKNVTCENG | 4.34
79 | HISSCKLGPQVSCDPMKNVTCENG | 3.68
80 | HISSCKLGPQVSGDPMKNVTCENG | 4.61
81 | HISSCKLGPQVSNDPMKNVTCENG | 4.42
82 | HISSCKLGPQVSQDPMKNVTCENG | 4.28
83 | HISSCKLGPQVSADPMKNVTCENG | 4.43
84 | HISSCKLGPQVSRDPMKNVTCENG | 3.8
85 | HISSCKLGPQVSLPPMKNVTCENG | 3.78
86 | HISSCKLGPQVSLFPMKNVTCENG | 2.46
87 | HISSCKLGPQVSLSPMKNVTCENG | 3.65
88 | HISSCKLGPQVSLKPMKNVTCENG | 3.5
89 | HISSCKLGPQVSLTPMKNVTCENG | 3.62
90 | HISSCKLGPQVSLWPMKNVTCENG | 2.14
91 | HISSCKLGPQVSLCPMKNVTCENG | 2.95
92 | HISSCKLGPQVSLAPMKNVTCENG | 3.51
93 | HISSCKLGPQVSLVPMKNVTCENG | 3.69
94 | HISSCKLGPQVSLMPMKNVTCENG | 3.22

— the supplement of paper PMC10567573
